Publication PMC4899126

How the values were obtained:
[1] = target: E.r. RT domain (group II intron maturase from Eubacterium rectale M104/1, residues 1-293) (Eubacterium rectale M104/1); experiment: AUC
[2] = target: E.r. RT domain (group II intron maturase from Eubacterium rectale M104/1, residues 1-293) (Eubacterium rectale M104/1); experiment: SEC-MALS
[3] = target: E.r. RT domain (group II intron maturase from Eubacterium rectale M104/1, residues 1-293) (Eubacterium rectale M104/1); experiment: SEC-MALS; remark: listed apart in the source
[4] = target: E.r. RT domain (group II intron maturase from Eubacterium rectale M104/1, residues 1-293) (Eubacterium rectale M104/1); experiment: AUC; remark: listed apart in the source

Measured: stoichiometry N

E.r. RT domain (group II intron maturase from Eubacterium rectale M104/1, residues 1-293) (domain or fragment)
2: all assays above
